Test results taken from paper PMC3334378.

Biological target: fibronectin (UniProt P02751)
UniProt P02751, sequence (P02751 32-2477): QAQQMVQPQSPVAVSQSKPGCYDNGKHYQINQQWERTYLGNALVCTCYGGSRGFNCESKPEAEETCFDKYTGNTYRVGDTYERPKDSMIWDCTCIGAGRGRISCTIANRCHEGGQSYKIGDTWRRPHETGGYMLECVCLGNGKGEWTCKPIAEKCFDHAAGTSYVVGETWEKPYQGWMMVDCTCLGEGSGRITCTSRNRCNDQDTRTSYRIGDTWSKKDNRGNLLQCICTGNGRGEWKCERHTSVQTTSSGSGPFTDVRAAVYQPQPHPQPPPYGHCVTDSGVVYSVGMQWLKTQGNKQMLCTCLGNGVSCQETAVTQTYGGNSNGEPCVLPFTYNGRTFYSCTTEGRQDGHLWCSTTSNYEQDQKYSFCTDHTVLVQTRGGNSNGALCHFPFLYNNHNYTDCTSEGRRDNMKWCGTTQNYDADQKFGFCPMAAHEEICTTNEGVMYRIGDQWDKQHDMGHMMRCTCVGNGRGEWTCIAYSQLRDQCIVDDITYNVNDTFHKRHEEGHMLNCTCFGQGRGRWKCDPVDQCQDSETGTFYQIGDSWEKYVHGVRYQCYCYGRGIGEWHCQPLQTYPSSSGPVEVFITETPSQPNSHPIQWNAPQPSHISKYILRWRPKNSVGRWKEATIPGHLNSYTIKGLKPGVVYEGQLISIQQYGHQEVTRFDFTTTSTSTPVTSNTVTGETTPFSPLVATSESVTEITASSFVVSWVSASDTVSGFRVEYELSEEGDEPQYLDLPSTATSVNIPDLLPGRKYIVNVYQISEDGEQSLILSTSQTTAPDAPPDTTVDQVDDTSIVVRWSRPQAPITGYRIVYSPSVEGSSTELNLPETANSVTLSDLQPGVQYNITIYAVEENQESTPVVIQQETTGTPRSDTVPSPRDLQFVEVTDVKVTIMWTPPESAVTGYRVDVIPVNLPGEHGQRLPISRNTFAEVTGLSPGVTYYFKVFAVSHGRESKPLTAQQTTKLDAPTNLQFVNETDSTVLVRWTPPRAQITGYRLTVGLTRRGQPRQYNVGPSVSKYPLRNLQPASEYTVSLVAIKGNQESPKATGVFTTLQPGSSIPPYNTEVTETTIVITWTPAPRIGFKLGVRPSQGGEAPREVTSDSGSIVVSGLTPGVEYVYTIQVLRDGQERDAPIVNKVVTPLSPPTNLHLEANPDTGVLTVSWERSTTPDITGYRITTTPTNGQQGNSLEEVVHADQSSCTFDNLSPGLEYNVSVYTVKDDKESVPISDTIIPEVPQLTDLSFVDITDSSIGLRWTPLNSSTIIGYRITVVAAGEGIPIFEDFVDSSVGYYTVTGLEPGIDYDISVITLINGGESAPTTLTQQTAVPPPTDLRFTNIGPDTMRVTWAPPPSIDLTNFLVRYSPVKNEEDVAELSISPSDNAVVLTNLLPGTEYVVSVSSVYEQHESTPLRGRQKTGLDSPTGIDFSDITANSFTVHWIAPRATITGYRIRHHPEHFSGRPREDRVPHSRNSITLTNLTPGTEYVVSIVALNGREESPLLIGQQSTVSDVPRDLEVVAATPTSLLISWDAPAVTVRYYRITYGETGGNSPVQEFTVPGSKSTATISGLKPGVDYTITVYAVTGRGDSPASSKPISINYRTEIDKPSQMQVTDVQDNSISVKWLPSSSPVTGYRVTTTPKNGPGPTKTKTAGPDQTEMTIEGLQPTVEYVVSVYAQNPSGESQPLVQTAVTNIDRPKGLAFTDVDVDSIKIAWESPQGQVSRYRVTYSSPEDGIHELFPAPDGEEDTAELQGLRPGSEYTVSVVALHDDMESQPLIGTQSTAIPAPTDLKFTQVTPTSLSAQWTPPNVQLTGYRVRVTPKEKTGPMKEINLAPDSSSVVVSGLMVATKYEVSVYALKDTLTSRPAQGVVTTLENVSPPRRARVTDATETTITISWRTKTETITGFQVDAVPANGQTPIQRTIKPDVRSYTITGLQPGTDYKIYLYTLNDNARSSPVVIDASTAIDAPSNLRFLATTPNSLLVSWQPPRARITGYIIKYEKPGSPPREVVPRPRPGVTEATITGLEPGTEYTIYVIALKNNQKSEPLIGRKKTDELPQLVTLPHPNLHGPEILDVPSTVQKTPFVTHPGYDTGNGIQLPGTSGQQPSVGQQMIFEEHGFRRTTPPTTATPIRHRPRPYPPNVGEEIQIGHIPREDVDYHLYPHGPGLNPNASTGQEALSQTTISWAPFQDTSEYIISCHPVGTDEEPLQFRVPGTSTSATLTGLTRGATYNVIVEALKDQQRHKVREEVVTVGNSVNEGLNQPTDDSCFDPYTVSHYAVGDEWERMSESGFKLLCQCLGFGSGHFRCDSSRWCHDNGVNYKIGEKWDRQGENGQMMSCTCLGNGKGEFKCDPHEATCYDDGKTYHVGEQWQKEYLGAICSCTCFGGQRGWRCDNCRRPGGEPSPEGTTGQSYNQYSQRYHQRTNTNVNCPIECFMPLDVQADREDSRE

β1-integrin, sequence (P49134 21-799): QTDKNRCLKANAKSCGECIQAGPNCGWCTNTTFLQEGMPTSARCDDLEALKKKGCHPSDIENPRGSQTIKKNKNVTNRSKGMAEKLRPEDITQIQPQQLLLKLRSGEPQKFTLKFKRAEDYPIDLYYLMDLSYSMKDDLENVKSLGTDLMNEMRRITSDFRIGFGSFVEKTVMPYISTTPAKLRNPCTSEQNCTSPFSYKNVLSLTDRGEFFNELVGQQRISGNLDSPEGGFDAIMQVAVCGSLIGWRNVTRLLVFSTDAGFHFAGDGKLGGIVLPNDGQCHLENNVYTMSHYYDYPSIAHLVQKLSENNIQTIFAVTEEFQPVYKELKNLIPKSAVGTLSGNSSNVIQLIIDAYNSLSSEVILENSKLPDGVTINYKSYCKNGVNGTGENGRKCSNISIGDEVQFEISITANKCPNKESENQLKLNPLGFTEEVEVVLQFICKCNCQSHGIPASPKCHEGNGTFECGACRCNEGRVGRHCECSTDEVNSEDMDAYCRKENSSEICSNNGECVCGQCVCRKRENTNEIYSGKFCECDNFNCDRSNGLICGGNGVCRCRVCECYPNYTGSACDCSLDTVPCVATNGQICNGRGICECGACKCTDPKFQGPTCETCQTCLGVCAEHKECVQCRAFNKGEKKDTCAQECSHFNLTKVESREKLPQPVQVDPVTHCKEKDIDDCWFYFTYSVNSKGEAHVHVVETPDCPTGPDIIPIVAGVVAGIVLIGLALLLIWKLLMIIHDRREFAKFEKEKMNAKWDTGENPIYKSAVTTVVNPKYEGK

With “β1-integrin (from UniProt P49134 21-799) (receptor)” as the substance, how does the inhibition of adhesion of 3Y1 cells to fibronectin-coated plates (60 min, 37°C) by β1-integrin blocking antibody (hamster anti-rat CD29, 50 µg/mL) read?
The inhibition of adhesion of 3Y1 cells to fibronectin-coated plates (60 min, 37°C) by β1-integrin blocking antibody (hamster anti-rat CD29, 50 µg/mL) was 51%.

And the inhibition of adhesion of HR-3Y1-2 cells to fibronectin-coated plates (60 min, 37°C) by β1-integrin blocking antibody (hamster anti-rat CD29, 50 µg/mL)?
The inhibition of adhesion of HR-3Y1-2 cells to fibronectin-coated plates (60 min, 37°C) by β1-integrin blocking antibody (hamster anti-rat CD29, 50 µg/mL) was 57%.
